# B1: let-7 guide / g2-21 target, G:U at positions 4-5 (dsRNA)
# RNA 1: GAUACUAUACAACCUACUAUUUCAACCU
# RNA 2: UGAGGUAGUAGGUUGUAUAGU
# modifications: 2'-O-methyl C and U around a phosphorothioate (CmCpsmU) in target
# B2: miR-11 / 6mer (mixed)
# RNA 1: UGUGAU
# RNA 2: CAUCACAGUCUGAGUUCUUGC
# modifications: guide 5' phosphate
# B3: let-7 / 8mer (mixed)
# RNA 1: CUACCUCA
# RNA 2: UGAGGUAGUAGGUUGUAUAGU
# modifications: guide 5' phosphate
# B4: miR-11 / 6mer-A1 (mixed)
# RNA 1: GUGAUA
# RNA 2: CAUCACAGUCUGAGUUCUUGC
# modifications: guide 5' phosphate
# B5: let-7 guide / g2-21 target, G:U at position 4 (dsRNA)
# RNA 1: GAUACUAUACAACCUACUACUUCAACCU
# RNA 2: UGAGGUAGUAGGUUGUAUAGU
# modifications: 2'-O-methyl C and U around a phosphorothioate (CmCpsmU) in target
# B6: let-7 guide / g2-21 complementary target (dsRNA)
# RNA 1: GAUACUAUACAACCUACUACCUCAACCU
# RNA 2: UGAGGUAGUAGGUUGUAUAGU
# modifications: 2'-O-methyl C and U around a phosphorothioate (CmCpsmU) in target
# How the values were obtained:
# [1] = target: T1, Ago1 (RISC, embryo lysate) (Drosophila w[*]; AGO2[414] embryos, 0-8 …, UniProt A1Z9J5 1-950); assay: competition; let-7 guide; RBNS: 20 mM HEPES-KOH pH 7.9, 100 mM KOAc, 3.5 mM Mg(OAc)2, 0.05% CHAPS, 2 mM DTT, 8% glycerol, BSA, tRNA, 25 C, 2 h; filter binding: 25 mM HEPES-KOH pH 7.9, 110 mM KOAc, 3.5 mM Mg(OAc)2, 2 mM DTT, 25 C; competition: 18 mM HEPES-KOH pH 7.4, 100 mM KOAc, 3 mM Mg(OAc)2, 5 mM DTT, 25 C; settings: protein: native; g2-21 paired, G:U at g4 and g5
# FLAG-Ago1 (RISC) [2] = target: T2, FLAG-Ago1 (RISC) (Drosophila melanogaster, UniProt A1Z9J5 1-950); assay: RNA Bind-n-Seq (filter binding, sequencing, MLE); miR-11 guide; 20 mM HEPES-KOH pH 7.9, 100 mM potassium acetate, 3.5 mM magnesium acetate, 0.05% CHAPS, 2 mM DTT, 8% glycerol, 0.05 ug/ul BSA, 0.01 mg/ml yeast tRNA, 100 nM RNA library, 25 C, 2 h; settings: protein: recombinant; tags: FLAG
# FLAG-Ago1 (RISC) [3] = target: T2, FLAG-Ago1 (RISC); assay: RNA Bind-n-Seq (filter binding, sequencing, MLE); let-7 guide; 20 mM HEPES-KOH pH 7.9, 100 mM potassium acetate, 3.5 mM magnesium acetate, 0.05% CHAPS, 2 mM DTT, 8% glycerol, 0.05 ug/ul BSA, 0.01 mg/ml yeast tRNA, 100 nM RNA library, 25 C, 2 h; settings: protein: recombinant; tags: FLAG; t2-t8 plus t1A
# [4] = target: T1, Ago1 (RISC, embryo lysate); assay: competition; let-7 guide; nearly same affinity as fully complementary; RBNS: 20 mM HEPES-KOH pH 7.9, 100 mM KOAc, 3.5 mM Mg(OAc)2, 0.05% CHAPS, 2 mM DTT, 8% glycerol, BSA, tRNA, 25 C, 2 h; filter binding: 25 mM HEPES-KOH pH 7.9, 110 mM KOAc, 3.5 mM Mg(OAc)2, 2 mM DTT, 25 C; competition: 18 mM HEPES-KOH pH 7.4, 100 mM KOAc, 3 mM Mg(OAc)2, 5 mM DTT, 25 C; settings: protein: native; g2-21 paired, G:U at g4
# [5] = target: T1, Ago1 (RISC, embryo lysate); assay: competition; let-7 guide; reference; RBNS: 20 mM HEPES-KOH pH 7.9, 100 mM KOAc, 3.5 mM Mg(OAc)2, 0.05% CHAPS, 2 mM DTT, 8% glycerol, BSA, tRNA, 25 C, 2 h; filter binding: 25 mM HEPES-KOH pH 7.9, 110 mM KOAc, 3.5 mM Mg(OAc)2, 2 mM DTT, 25 C; competition: 18 mM HEPES-KOH pH 7.4, 100 mM KOAc, 3 mM Mg(OAc)2, 5 mM DTT, 25 C; settings: protein: native; g2-21 paired
# T2 sequence (A1Z9J5 entry or part of it): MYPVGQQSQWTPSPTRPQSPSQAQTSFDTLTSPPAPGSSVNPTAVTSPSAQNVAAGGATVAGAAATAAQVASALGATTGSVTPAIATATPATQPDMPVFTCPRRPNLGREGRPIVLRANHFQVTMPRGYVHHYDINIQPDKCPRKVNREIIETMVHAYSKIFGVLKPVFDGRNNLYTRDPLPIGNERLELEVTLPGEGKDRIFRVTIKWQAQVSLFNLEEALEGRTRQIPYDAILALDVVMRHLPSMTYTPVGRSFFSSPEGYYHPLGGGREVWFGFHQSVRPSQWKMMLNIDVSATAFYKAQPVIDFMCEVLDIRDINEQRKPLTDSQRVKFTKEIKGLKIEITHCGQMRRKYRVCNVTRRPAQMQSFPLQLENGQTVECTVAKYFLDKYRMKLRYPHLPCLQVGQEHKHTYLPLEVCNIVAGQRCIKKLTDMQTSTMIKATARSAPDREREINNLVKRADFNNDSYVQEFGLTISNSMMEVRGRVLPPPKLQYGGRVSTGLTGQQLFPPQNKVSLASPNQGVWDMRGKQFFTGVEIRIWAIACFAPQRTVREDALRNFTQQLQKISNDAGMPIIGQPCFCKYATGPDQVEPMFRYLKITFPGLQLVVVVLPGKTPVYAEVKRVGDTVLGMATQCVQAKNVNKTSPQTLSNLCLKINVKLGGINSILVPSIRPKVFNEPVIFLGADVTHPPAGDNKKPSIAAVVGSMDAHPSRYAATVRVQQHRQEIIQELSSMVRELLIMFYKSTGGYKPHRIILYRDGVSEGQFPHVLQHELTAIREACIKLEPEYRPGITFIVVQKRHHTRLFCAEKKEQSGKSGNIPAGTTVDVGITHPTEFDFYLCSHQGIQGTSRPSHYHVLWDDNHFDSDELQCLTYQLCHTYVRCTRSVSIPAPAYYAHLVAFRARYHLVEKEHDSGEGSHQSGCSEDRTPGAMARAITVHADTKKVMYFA
# T1 sequence (A1Z9J5 entry or part of it): as above
binder,measurement,setting,value
B1,binding signal,[1],120 fold lower affinity
B2,Kd,FLAG-Ago1 (RISC) [2],0.388 ± 0.0906 nM
B3,Kd,FLAG-Ago1 (RISC) [3],0.005 ± 0.00169 nM
B4,Kd,FLAG-Ago1 (RISC) [2],0.404 ± 0.0996 nM
B5,binding result,[4],binds
B6,binding result,[5],binds

# — publication PMC12905440, “Biochemical principles of miRNA targeting in flies”
